Changes are numbered by the printed parent chain. Numbers in names are those of the source. Blank lines part the entries; values can stand above or below the binder they belong to. Ends that are not written are not given here.
Columns and labels:
[1] = molecular target: human DPP4 on the surface of fibroblasts (human) (UniProt P27487); assay: flow cytometry on COPD human lung fibroblasts; 0.5 µg per test; anti-6xHis tag PE secondary
[2] = molecular target: human DPP4 on the surface of fibroblasts (human) (UniProt P27487); assay: flow cytometry on untreated GM21808 fibroblasts; 0.5 µg per test; anti-6xHis tag PE secondary
[3] = molecular target: human DPP4 on the surface of fibroblasts (human) (UniProt P27487); assay: flow cytometry on NHLF (normal human lung fibroblasts); 0.5 µg per test; anti-6xHis tag PE secondary
[4] = molecular target: human DPP4 on the surface of fibroblasts (human) (UniProt P27487); assay: flow cytometry on Wi-38 fibroblasts (PDL<20); 0.5 µg per test; anti-6xHis tag PE secondary
[5] = molecular target: human DPP4 on the surface of fibroblasts (human) (UniProt P27487); assay: flow cytometry on GM21808 fibroblasts treated with etoposide; 0.5 µg per test; anti-6xHis tag PE secondary
[6] = molecular target: human DPP4 on the surface of fibroblasts (human) (UniProt P27487); assay: flow cytometry on IPF human lung fibroblasts; 0.5 µg per test; anti-6xHis tag PE secondary
[7] = molecular target: T1, human DEP1 on the surface of fibroblasts (human) (UniProt Q12913); assay: flow cytometry on COPD human lung fibroblasts; 0.5 µg per test; anti-6xHis tag PE secondary
T1 sequence: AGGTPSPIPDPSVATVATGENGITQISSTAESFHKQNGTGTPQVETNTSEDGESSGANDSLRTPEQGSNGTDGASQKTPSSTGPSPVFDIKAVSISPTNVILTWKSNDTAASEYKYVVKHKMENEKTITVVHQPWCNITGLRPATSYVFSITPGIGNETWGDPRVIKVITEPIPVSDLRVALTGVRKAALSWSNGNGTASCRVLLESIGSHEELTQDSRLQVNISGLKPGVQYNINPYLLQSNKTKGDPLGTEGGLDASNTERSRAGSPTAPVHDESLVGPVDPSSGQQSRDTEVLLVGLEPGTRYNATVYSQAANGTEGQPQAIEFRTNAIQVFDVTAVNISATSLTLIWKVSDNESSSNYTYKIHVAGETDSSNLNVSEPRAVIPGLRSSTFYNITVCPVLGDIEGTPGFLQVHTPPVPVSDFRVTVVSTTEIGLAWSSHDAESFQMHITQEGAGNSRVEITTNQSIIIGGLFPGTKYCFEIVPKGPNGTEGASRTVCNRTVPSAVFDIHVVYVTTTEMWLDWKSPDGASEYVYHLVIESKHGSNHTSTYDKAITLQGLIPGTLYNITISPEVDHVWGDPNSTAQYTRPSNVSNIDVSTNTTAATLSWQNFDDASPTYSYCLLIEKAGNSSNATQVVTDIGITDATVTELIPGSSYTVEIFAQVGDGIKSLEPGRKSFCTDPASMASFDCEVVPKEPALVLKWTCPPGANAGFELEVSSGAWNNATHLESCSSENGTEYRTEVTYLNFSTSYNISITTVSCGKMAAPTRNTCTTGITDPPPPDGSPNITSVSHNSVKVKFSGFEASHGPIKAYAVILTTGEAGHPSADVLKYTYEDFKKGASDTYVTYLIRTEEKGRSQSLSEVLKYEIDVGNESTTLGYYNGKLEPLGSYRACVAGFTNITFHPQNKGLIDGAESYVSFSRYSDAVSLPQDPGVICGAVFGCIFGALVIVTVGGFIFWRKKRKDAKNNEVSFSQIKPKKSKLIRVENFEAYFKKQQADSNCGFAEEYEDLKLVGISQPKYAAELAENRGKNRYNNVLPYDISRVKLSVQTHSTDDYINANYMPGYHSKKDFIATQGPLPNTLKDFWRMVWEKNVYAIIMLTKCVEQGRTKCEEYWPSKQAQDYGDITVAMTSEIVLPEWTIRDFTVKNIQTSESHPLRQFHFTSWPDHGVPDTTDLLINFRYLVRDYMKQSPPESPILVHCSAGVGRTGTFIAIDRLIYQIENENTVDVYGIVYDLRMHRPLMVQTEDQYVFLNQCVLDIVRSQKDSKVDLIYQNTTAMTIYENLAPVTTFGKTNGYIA

[8] = molecular target: T1, human DEP1 on the surface of fibroblasts (human); assay: flow cytometry on untreated GM21808 fibroblasts; 0.5 µg per test; anti-6xHis tag PE secondary
[9] = molecular target: T1, human DEP1 on the surface of fibroblasts (human); assay: flow cytometry on NHLF (normal human lung fibroblasts); 0.5 µg per test; anti-6xHis tag PE secondary
[10] = molecular target: T1, human DEP1 on the surface of fibroblasts (human); assay: flow cytometry on Wi-38 fibroblasts (PDL<20); 0.5 µg per test; anti-6xHis tag PE secondary
[11] = molecular target: T1, human DEP1 on the surface of fibroblasts (human); assay: flow cytometry on GM21808 fibroblasts treated with etoposide; 0.5 µg per test; anti-6xHis tag PE secondary
[12] = molecular target: T1, human DEP1 on the surface of fibroblasts (human); assay: flow cytometry on IPF human lung fibroblasts; 0.5 µg per test; anti-6xHis tag PE secondary
hDEP1 Peptide #4 = molecular target: T2, hDEP1 Peptide #4 (human, also: conjugated to BSA); assay: ELISA, soluble scFv produced in microtiter plate
T2 construct: also called hDEP1 Peptide #4/BSA
T2 peptide: ADVLKYTYEDFKKGASDT
Protocol: 96 isolated clones from the second, third and fourth rounds of panning were hand-picked and used to produce the respective soluble scFv in microtiter plate. Each clone was then tested in ELISA against hDEP1 Peptide #4/BSA.

Sequence of human DPP4 on the surface of fibroblasts (human) (P27487 whole entry): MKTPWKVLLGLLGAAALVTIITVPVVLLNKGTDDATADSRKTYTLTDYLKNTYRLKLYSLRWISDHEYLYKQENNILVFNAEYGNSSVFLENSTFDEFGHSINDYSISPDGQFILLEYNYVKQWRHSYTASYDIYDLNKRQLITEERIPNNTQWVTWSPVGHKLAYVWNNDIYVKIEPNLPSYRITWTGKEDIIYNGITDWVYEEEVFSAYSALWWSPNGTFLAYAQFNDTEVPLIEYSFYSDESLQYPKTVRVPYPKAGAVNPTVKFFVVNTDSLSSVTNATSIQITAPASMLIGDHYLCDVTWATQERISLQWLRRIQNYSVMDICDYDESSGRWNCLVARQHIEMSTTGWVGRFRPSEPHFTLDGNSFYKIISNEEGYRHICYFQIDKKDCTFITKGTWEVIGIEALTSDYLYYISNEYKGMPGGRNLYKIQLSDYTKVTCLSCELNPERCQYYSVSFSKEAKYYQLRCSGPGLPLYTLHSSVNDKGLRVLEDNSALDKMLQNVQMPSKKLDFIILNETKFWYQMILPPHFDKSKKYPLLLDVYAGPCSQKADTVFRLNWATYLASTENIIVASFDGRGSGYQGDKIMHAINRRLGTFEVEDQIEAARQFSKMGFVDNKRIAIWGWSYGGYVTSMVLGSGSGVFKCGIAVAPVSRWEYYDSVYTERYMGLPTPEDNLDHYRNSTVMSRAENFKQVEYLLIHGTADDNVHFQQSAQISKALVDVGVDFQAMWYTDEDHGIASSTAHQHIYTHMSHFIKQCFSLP

- binding result (hDEP1 Peptide #4): binds
B4: 5738-10-R4A-G11 (scFv, V domains shown)
VH: QVQLQQPRAELAKPGSSVKISCKASGYTFTNYSISWIKQTTGQGLEYIGYIYPGSGDTNYNEKFKGKATLTVDKSSSTAFMQLSSLTPDDSAVYYCARYFDHWGQGTLVTVSS
VL: DILMTQSPSSMSVSLGDTVTITCRASQDVGIYVNWFQQKPGKSPRRMIYRATTLADGVPSRFSGSRSGSDYSLTISSLESEDVADYHCLQYDEYPPTFGSGTKLEIK
notes: anti-hDEP1 scFv, rat 10 library, format VH/VL-6xHis-Flag

- binding result (hDEP1 Peptide #4): binds
B6: 5738-10-R4A-F12 (scFv, V domains shown)
VH: EVQLQQSGVELAKPGSSVKISCKASGYTFTSDSISWIKQTTGQGLEYIGYIHPGSGVTNYNEKFKGKATLTVDKSSSTAFMQLSSLTPDDSAIYYCARYFDYWGQGVMVTVSS
VL: B4 VL with Y49H, T53N
notes: as for B4

- binding result (hDEP1 Peptide #4): binds
B7: 5738-10-R4A-E9 (scFv, V domains shown)
VH: B6 VH with E1Q, Q5K, V9A, D32Y, S33Y
VL: B4 VL with L15Q, Y49H, T53N, S76T, K103N
notes: as for B4

- binding result (hDEP1 Peptide #4): binds
B8: 5738-10-R4A-G4 (scFv, V domains shown)
VH: B6 VH with K65R
VL: B4 VL with L3V, T53N, S76A, Y94F
notes: as for B4

- MFI [1]: 10100
- percentage of positive cells [1]: 66.5%
- MFI [2]: 1940
- percentage of positive cells [2]: 8.13%
- MFI [3]: 3650
- percentage of positive cells [3]: 11%
- MFI [4]: 574
- percentage of positive cells [4]: 0.01%
- MFI [5]: 10900
- percentage of positive cells [5]: 61.9%
- MFI [6]: 16700
- percentage of positive cells [6]: 79.5%
B9: 5826-13-R4A-H5 (scFv, part only; not given: linker and His-Flag tag, V domains shown, not shown: another chain or arm of the molecule; large carriers; small tags and cut ends)
VH: EVQLQQSGAGLTKPGGSVKISCKVSGYTFTTYDIGWLKQRPGQALEWIGSINPGGGGTGYNEKFKGKATLTVDKSSSTAFMQLSSLTPEDTAVYYCARPLRRVLDYWGQGVLVTVSS
VL: DIQLTQSPSSLPASLGERVTISCRASQGISNKLNWYQQKPDGTIKPLIYYTSNLQSGVPSRFSGSGSGTDYSLTISSLEPEDFAMYYCQQDASFPPTFGGGTKLELK

Further lines, the binder ahead of its results:

B1: 5826-13-R3A-D5 (scFv, part only; not given: linker and His-Flag tag, V domains shown, not shown: another chain or arm of the molecule; small tags and cut ends)
VH: EVKLVESGPGLVKPSQSLSLTCSVTGYFITGNYLAWIRKFPGNKMEWIGHIKSSGTTTYNPSLKSRVSITRDTSKNQFFLQLNSVTSEDTATYYCARHGHYVMDVWGQGASVTVSS
VL: DIVLTQSPVLAVSLGQRATISCRASQSVSTSTYNFMHWYQQKPGQQPRLLIYDASHLASSVPARFSGSGSGTDFTLTINPVQADDIATYYCQQSRELPLTFGSGTKLEIK
- MFI [1]: 4060
- percentage of positive cells [1]: 10.7%
- MFI [2]: 1210
- percentage of positive cells [2]: 5.02%
- MFI [3]: 1740
- percentage of positive cells [3]: 2.02%
- MFI [4]: 581
- percentage of positive cells [4]: 0%
- MFI [5]: 2730
- percentage of positive cells [5]: 16.1%
- MFI [6]: 11500
- percentage of positive cells [6]: 62.7%

B2: 5738-13-R2A-H4 (scFv, part only; not given: linker and His-Flag tag, V domains shown, not shown: another chain or arm of the molecule; small tags and cut ends)
VH: EVKLVESGGGLVQPGRSLKLSCAASGFTFSNYYMAWVRQAPTKGLEWVAYITNGFGSTYYRDSVKGRFTISRDNAKSTLYLQMDSLRSEDTATYYCSTVPLGAFVSWGQGTLVTVSS
VL: DIQMTQTPHSLSASLGETVSIECLASEGISNYLAWYQQKPGKSPQLLISYANPLHDGVPSRFSGSGSGTQFSLKIRNMQPEDEGVYYCQQGYKFPYTFGAGTKLELT
- MFI [7]: 1480
- percentage of positive cells [7]: 0.39%
- MFI [8]: 980
- percentage of positive cells [8]: 2.5%
- MFI [9]: 1310
- percentage of positive cells [9]: 0.58%
- MFI [10]: 891
- percentage of positive cells [10]: 4.88%
- MFI [11]: 2210
- percentage of positive cells [11]: 12.5%
- MFI [12]: 5020
- percentage of positive cells [12]: 40%

B3: 5738-10-R3A-D5 (scFv, part only; not given: linker and His-Flag tag, V domains shown, not shown: another chain or arm of the molecule; small tags and cut ends)
VH: EVQLQQSGAELAKPGSSVKISCKASGYTFTSYYISWIKQTTGQGLEYIGYINTGSGGTNYNEKFKGKATLTVDKSSSTAFMQLSSLTPDDSAVYYCARDKWVDWGQGVMVTVSS
VL: B4 VL with S43P, T53N, D70N, S76R, Y94W, P96Y, S100A, I106L
- MFI [7]: 1440
- percentage of positive cells [7]: 0.06%
- MFI [8]: 632
- percentage of positive cells [8]: 0.07%
- MFI [9]: 1250
- percentage of positive cells [9]: 0.08%
- MFI [10]: 1040
- percentage of positive cells [10]: 4.81%
- MFI [11]: 1380
- percentage of positive cells [11]: 6.57%
- MFI [12]: 3500
- percentage of positive cells [12]: 22.3%

B5: 5738-10-R4A-E7 (scFv, V domains shown)
VH: B6 VH with E1Q, Q5K
VL: B4 VL with K39I, M47L, T53N, S76A, Y94F
notes: as for B4
- binding result (hDEP1 Peptide #4): binds

— US20240009242A1 (STARKAGE THERAPEUTICS, published 2024)
